Reference: patent publication US5621089

Target: casein

## PD498 alkaline protease (protease purified from Bacillus sp. PD498, NCIMB No. 40484) (enzyme)
  proteolytic activity (Casein Protease Units, CPU): 120 CPU/l
